Here are results for 4 molecules from patent US20250298041A1 (published 2025).

As usually defined, the EC50 is the concentration at which the effect is half-maximal.

Experiment [1] concerns the target T1, Plasma-derived VWF (pdVWF, Alphanate) (human, UniProt P04275 764-2813).
T1 construct: Commercial multimeric VWF concentrate; also called plasma-purified VWF; full-length VWF
The experiment is described as follows: ELISA: binding of pdVWF (0.1 µg/ml) to immobilised LBD-WT induced by a titration of the nanobody; EC50 of nanobody-induced binding of pdVWF to immobilized LBD. On the technique in general: An ELISA detects its analyte on a solid surface through an enzyme-linked reagent.

Experiment [2] deals with plasma VWF (normal pooled human plasma) (human, UniProt P04275 764-2813). In words: cell-based or functional assay.
Experiment [3] has as its target T1, Plasma-derived VWF (pdVWF, Alphanate). In words: ELISA, plate coated with 100 nM nanobody, pdVWF titrated; apparent affinity, hyperbolic fit; apparent Kd of direct binding to pdVWF.
Experiment [4] deals with T2, recombinant AIM-A1 protein (human VWF residues 1238-1493) (human, multiple O-linked sialylated core 1 glycans (produced from transfected HEK293F cells)).
T2 construct: Any tags are as in that entry; also called glycosylated AIM-A1; human VWF AIM-A1 protein
In words: method not given; nanobody from E. coli on AIM-A1.

Experiment [5] deals with T2, recombinant AIM-A1 protein (human VWF …). In words: biolayer interferometry.
The target is the same in experiment [6]. In words: apparent affinity, method not named; glycosylated AIM-A1 from HEK293F cells; glycosylated AIM-A1 from HEK293F cells; apparent affinity.
Experiment [7] deals with T1, Plasma-derived VWF (pdVWF, Alphanate). In words: method not stated; monomeric recombinant VHH81; plasma-derived VWF.
The target of the next experiment is T3, purified VWF (UniProt P04275 764-2813, limits assumed).
T3 construct: It may be a recombinant fragment
The experiment is described as follows: method not stated; monomeric recombinant VHH81; purified VWF.

B1: Cd1C4 (VHH)
VHH: QVQLVESGGGLVQTGGSLTLSCAASGRAFSQYSVGWFRQAPGKERTFVAAINWSGTKAYYAGSVKGRSTISRDRAKTTVFLQMNSLKPEDTAVYYCATHRGLYYEGTNYSQKDEYDYWGQGTQVTVSS
notes: Llama nanobody produced in E. coli with a C-terminal His tag; also called 6C4
Consider B1, for which the EC50 in experiment [1] came out at 163 nM. For the same molecule, the “EC50 of platelet aggregation in stirred human platelet rich plasma” value (“EC50 of platelet aggregation” for short) in experiment [2] is about 167 nM. Also, the Kd in experiment [3] stood at 5.4 nM; in experiment [4], 120 nM.

B2: Cd1D12 (VHH)
VHH: QVQLVESGGGLVQPGGSLRLSCAASGFTLDDYAIGWFRQVPGKERTFVGAINWSGTKAYYAGSVKGRSTVRRDNAKNTVYLQMNSLKPEDTAVYYCATHRGLHYGGINYSQKDEYDYWGQGTQVTVSS
notes: Llama nanobody produced in E. coli with a C-terminal His tag; also called 6D12
On to B2, for which the EC50 in experiment [1] was found to be 42 nM. For the same molecule, the “EC50 of extent of platelet aggregation as a function of nanobody concentration” value in experiment [2] was about 100 nM. In addition, the “EC50 of platelet aggregation” value in experiment [2] was about 57 nM. The Kd was 1.12 nM in experiment [3], 76 nM in experiment [5], 31 nM in experiment [4] and about 10 nM in experiment [6].

B3: Cd1C11 (VHH)
VHH: QVQLVESGGGLVQTGGSLRLSCAASGRTVSHYSVGWFRQAPGKERVFVGAINWSGDKAYYVGSVKGRSTIRRDNAKNTVYLQMNSLKPEDTAVYYCATRRGLYYEGTDYSRKDEYDYWGQGTQVTVSS
notes: Llama nanobody produced in E. coli with a C-terminal His tag; also called 6C11
Regarding B3, a half-maximal response in experiment [1] (EC50) required 215 nM. In addition, in experiment [2], the “EC50 of extent of platelet aggregation as a function of nanobody concentration” value is about 100 nM. The “EC50 of platelet aggregation” value in experiment [2] is about 100 nM. In addition, the Kd in experiment [3] is 3.68 nM; in experiment [5], 29 nM; in experiment [4], 13.5 nM.

B4: VHH81 (VHH)
VHH: EVQLVESGGGLVQPGGSLRLSCAASGRITSYNPMGWFRQAPGKGRELVAAISRTGGSTYYPDSVEGRFTISRDNAKRMVYLQMNSLRAEDTAVYYCAAAGVRAEDGRVRTLPSEYTFWGQGTQVTVSS
notes: Monomeric recombinant VHH81 produced in bacteria; The tags are not included here; also called PMP12A2h1; mono ISVD of caplacizumab
With B4, the Kd (in experiment [7]; with purified VWF) was about 20 nM in each case.
